Reference: patent publication US20080267976A1 (published 2008)

Target: extracellular region of human V158 FcγRIIIa fused with glutathione S-Transferase (GST) (human;, UniProt P08637 17-208)
Assay: competition AlphaScreen

Sequence of extracellular region of human V158 FcγRIIIa fused with glutathione S-Transferase (GST) (P08637 17-208 F176V): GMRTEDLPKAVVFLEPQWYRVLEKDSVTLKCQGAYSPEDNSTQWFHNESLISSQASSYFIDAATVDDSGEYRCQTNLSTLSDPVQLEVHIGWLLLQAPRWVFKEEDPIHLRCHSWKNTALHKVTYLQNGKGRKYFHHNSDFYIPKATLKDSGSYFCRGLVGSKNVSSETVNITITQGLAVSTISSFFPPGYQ

B1: H3.69_V2/L3.71 AC10 IgG(1/2) ELLGG antibody (XmAb2513) (antibody)
heavy: QVQLVQSGAEVKKPGASVKVSCKVSGYTFTDYYITWVRQAPGQALEWMGWIYPGSGNTKYSQKFQGRFVFSVDTSASTAYLQISSLKAEDTAVYYCANYGNYWFAYWGQGTLVTVSSASTKGPSVFPLAPSSKSTSGGTAALGCLVKDYFPEPVTVSWNSGALTSGVHTFPAVLQSSGLYSLSSVVTVPSSSLGTQTYICNVNHKPSNTKVDKKVEPKSCDKTHTCPPCPAPELLGGPDVFLFPPKPKDTLMISRTPEVTCVVVDVSHEDPEVQFNWYVDGVEVHNAKTKPREEQFNSTFRVVSVLTVVHQDWLNGKEYKCKVSNKALPAPEEKTISKTKGQPREPQVYTLPPSREEMTKNQVSLTCLVKGFYPSDIAVEWESNGQPENNYKTTPPMLDSDGSFFLYSKLTVDKSRWQQGNVFSCSVMHEALHNHYTQKSLSLSPGK
light: EIVLTQSPDSLAVSLGERATINCKASQSVDFDGDSYLNWYQQKPGQPPKVLIYAASTLQSGVPSRFSGSGSGTDFTLTINSLEAEDAATYYCQQSNEDPWTFGGGTKVEIKRTVAAPSVFIFPPSDEQLKSGTASVVCLLNNFYPREAKVQWKVDNALQSGNSQESVTEQDSKDSTYSLSSTLTLSKADYEKHKVYACEVTHQGLSSPVTKSFNRGEC
How did the IC50 turn out when B1 was run?
The IC50 was 38 nM.
